From patent US7629135B2, “Toll-like receptor agonists and antagonists and methods of use thereof” (The Board of Trustees of the University of Illinois, priority 2006, dated 2009) come the findings set out here.

In experiment [1] the test system is RelA/p65 binding to the CK-1 site of the G-CSF promoter. Kind of experiment: Chromatin immunoprecipitation (ChIP) assay in RAW264.7 cells. It is filed as cell-based, mouse. Conditions: SAA 1 μM or TNFα 50 ng/ml. As to the method: To investigate the mechanism for SAA-induced G-CSF production, the level of G-CSF transcript in SAA-stimulated BMDM was determined. […] The induction of G-CSF transcript peaked at 4 h after SAA stimulation. Since transcription of the G-CSF gene involves NF-κB binding to the RelA/p65 consensus element in the CK-1 site of the G-CSF promoter (Dunn et al., 1994; Hareng and Hartung, 2002), the role of NF-κB in SAA-stimulated G-CSF expression was determined. […] Using oligonucleotide probe based on the sequence of the CK-1 site (−161 to −152 in the G-CSF promoter), a protein •DNA complex (FIG. 2C) was identified. […] Inclusion of a RelA/p65 antibody blocking peptide in the assay abrogated the immunoprecipitation (FIG. 2D).
ChIP assay: Reagents were obtained from Upstate Biotechnology, and ChIP assay was performed as per manufacturers specifications with minor modifications. Briefly, a total of 1×10^7 RAW264.7 cells were harvested and resuspended in a serum-free DMEM medium absence or presence of 1 μM SAA, or 50 ng/ml of TNFα, and incubated for 30 or 60 min at 37° C. Following stimulation, cells were crosslinked and then washed and resuspended in SDS-lysis buffer, and were sonicated (4 times for 10 s each, with a setting at ‘4’ on a Fisher Sonic 60 dismembrenator). […] The PCR products were analyzed on a 2.5% agarose gel.

The subject of a further experiment is C57BL/6 mice. Put plainly: Plasma G-CSF in SAA-injected mice (ELISA). The experiment is classed as in vivo, mouse. As for the experimental part: SAA stimulates neutrophilia through G-CSF: To investigate whether SAA-induced G-CSF secretion contributes to neutrophilia, in vivo studies were conducted with daily administration of SAA in mice. C57BL/6 mice were injected subcutaneously (s.c.) with a daily dose of 120 μg SAA/kg body weight (˜3 μg of SAA each mouse) for 7 consecutive days. At different time points after the injection was initiated, blood neutrophil numbers were determined and the results were compared to neutrophil numbers prior to SAA administration. […] To establish a causal relationship between SAA-induced G-CSF production and neutrophilia in mice, wild-type C57BL/6 mice wre compared with csf3^−/− mice for changes in neutrophil count.
Measurement of G-CSF expression: To measure the secreted G-CSF from human monocytes and mouse macrophages in vitro, cells were placed in serum-free DMEM medium and stimulated with the indicated ligands. Cell-free supernatants were collected by centrifugation at 1,000×g for 30 sec and assayed for human or mouse G-CSF using ELISA. Human PBMC were used as 2×10^6 cells/ml/sample, and mouse BMDM were seeded at 10^6 cells/ml and used as 0.5 ml/sample. To measure mouse plasma G-CSF, blood samples were collected and centrifuged at 1,000-2,000×g for 10 min at 4° C. Plasma samples were appropriately diluted and then checked for G-CSF concentration using ELISA. […] Real-time quantitative PCR was performed on a ABI PRISM 7000 Sequence Detection System (Applied Biosystems) as described previously (He et al., 2006). All data were analyzed with the ABI PRISM 7000 SDS software (version 1.1). Relative level of mRNA for G-CSF was determined by normalizing with β-actin mRNA level. […]
SAA-induced neutrophilia: For analysis of SAA-induced neutrophil increase, SAA was injected subcutaneously into both G-CSF deficient (csf3^−/−) (n=5) and csf3^+/+ (n=5), age- and sex-matched littermates (8-9 weeks, male), at doses of 120 μg/kg/d in 200 μl PBS. […] Total white blood cell (WBC) count and WBC differential count were determined using a Hemavet 950FS multispecies hematology analyzer (Drew Scientific).

B1: SAA: Recombinant human SAA purchased from PeproTech; major acute-phase protein of 104 amino acids (protein, UniProt P0DJI8 19-122, looked up)
Serum amyloid A-1 protein: RSFFSFLGEAFDGARDMWRAYSDMREANYIGSDKYFHARGNYDAAKRGPGGAWAAEVITDARENIQRFFGHGAEDSLADQAANEWGRSGKDPNHFRPAGLPEKY
Consider B1, for which the “pull-down of CK-1 DNA fragment by anti-RelA/p65 antibody” value in experiment [1] is recorded as “able to pull-down the CK-1 DNA fragment”. The “plasma G-CSF level” value in the experiment with C57BL/6 mice (C57BL/6 mice, SAA 120 μg/kg s.c. daily, end of 7 days) is “significantly elevated G-CSF level”. Also, in the experiment with C57BL/6 mice (SAA s.c. up to 7 days, 168 h), the “plasma G-CSF in tlr2−/− mice vs wild-type” value is listed as “significantly less G-CSF”. The “plasma concentration of G-CSF, maximum” value with C57BL/6 mice (SAA-injected C57BL/6 mice, 168 h) was determined as 97 pg/mL.
